Drawing on publication doi:10.1101/2021.05.21.445118, this text covers ΔΔG against WT ACE2 for one substance.

Holding throughout (experiment): SPR
(In general: SPR reads the build-up and loss of mass on a sensor chip optically.)

The target of assay [1] is human extracellular ACE2 p.Glu35Lys (human) (UniProt Q9BYF1).
Assay [2] concerns the target human extracellular ACE2 p.Ser19Pro (human) (UniProt Q9BYF1).
Assay [3] has as its target human extracellular ACE2 p.Glu329Gly (human) (UniProt Q9BYF1).
For assay [4], the target named is human extracellular ACE2 p.Lys26Arg (human) (UniProt Q9BYF1).

Turning to “SARS-CoV-2 Spike receptor binding domain (from UniProt P0DTC2) (domain or fragment)”, the ΔΔG against WT ACE2 in assay [1] was -1.51 kJ/mol; in assay [2] it was 2.47 kJ/mol; in assay [3], -0.377 kJ/mol; in assay [4] it was 1.09 kJ/mol.
